Test results taken from patent US20100297153A1 (CRUCELL HOLLAND B V, published 2010).

Tests used:
[1] = molecular target: T1, mycATAD3A (ATAD3A with a myc tag at the 5' end) (human, UniProt Q9NVI7 2-586); test: immunoprecipitation from lysate of transfected HEK293T cells, immunoblot with anti-myc
T1 construct: Expressed in transfected HEK293T cells and immunoprecipitated from a 1% Triton X-100 lysate; also called 5' myc-tagged ATAD3A
T1 sequence: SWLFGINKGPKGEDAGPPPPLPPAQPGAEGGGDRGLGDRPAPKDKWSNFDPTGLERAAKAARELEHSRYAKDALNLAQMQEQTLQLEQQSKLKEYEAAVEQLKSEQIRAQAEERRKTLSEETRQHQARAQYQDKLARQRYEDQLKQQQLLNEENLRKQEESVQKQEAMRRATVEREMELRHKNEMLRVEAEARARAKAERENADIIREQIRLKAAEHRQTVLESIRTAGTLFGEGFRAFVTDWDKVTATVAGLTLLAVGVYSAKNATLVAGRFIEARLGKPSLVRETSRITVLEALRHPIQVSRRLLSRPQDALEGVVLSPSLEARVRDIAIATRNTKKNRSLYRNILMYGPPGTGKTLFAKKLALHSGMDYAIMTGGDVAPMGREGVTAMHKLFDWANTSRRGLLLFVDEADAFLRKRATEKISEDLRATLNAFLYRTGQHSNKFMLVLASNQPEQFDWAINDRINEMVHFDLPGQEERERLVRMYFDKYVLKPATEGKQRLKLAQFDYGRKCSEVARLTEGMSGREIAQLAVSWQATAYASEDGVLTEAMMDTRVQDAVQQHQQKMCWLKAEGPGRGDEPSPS

[2] = molecular target: T2, ATAD3Amyc (ATAD3A with a myc tag at the 3' end) (human, UniProt Q9NVI7 1-586); test: as above
T2 construct: Expressed in transfected HEK293T cells and immunoprecipitated from a 1% Triton X-100 lysate; also called 3' myc-tagged ATAD3A; not shown: C-terminal myc tag, in frame from vector pcDNA3.1/hismycA
T2 sequence: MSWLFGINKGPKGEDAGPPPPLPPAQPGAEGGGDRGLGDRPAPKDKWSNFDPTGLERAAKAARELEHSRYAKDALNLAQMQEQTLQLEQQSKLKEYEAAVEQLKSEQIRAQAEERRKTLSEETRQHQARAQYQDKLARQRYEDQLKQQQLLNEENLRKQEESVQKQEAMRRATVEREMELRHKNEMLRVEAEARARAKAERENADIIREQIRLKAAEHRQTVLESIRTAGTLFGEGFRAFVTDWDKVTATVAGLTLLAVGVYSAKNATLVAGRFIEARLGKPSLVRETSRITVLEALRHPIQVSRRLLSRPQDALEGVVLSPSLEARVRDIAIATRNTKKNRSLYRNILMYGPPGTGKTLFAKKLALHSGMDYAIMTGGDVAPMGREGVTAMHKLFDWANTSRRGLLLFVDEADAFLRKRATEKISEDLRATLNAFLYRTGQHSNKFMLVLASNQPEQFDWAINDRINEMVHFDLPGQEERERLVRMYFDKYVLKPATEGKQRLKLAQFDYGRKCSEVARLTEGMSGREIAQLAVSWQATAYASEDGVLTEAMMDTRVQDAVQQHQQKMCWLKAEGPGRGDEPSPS

[3] = molecular target: T3, ATAD3A (human protein having the amino acid sequence SEQ ID NO:6) (human, UniProt Q9NVI7 2-586, limits assumed); test: CR2361 affinity column loaded with NB4 cell lysate, elution at pH 2.7, SDS-PAGE bands identified by MALDI-MS
T3 construct: Endogenous protein from a RIPA lysate of NB4 cells; Bands of 30, 40 and 75 kDa eluted from the CR2361 column gave ATAD3A peptides; No peptides were identified from the 150 kDa band
T3 sequence: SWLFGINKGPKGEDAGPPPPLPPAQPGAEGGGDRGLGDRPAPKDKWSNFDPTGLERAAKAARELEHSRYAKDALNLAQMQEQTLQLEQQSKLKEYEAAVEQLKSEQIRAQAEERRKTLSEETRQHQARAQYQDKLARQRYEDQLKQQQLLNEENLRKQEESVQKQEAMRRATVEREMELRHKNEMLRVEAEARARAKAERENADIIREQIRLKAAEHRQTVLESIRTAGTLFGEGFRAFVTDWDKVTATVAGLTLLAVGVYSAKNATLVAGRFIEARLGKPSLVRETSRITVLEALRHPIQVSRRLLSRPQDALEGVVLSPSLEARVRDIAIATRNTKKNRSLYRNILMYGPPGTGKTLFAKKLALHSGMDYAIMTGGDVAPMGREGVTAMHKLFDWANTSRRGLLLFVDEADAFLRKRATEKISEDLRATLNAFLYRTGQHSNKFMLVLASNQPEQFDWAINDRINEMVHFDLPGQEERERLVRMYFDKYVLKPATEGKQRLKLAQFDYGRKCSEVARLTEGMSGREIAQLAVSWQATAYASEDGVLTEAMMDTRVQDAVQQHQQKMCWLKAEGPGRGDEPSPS
Procedure: In advance the IgG1s were passed over a 100 kDa ultracentrifugal device to remove incomplete small IgG fragments.
For the purification of the target antigen of CR2361, an affinity column was prepared as described above for CR2401. A cell lysate of 4*10⁹ NB4 cell was prepared in RIPA buffer, according to the method described in Example 5. The cell lysate was treated essentially as described above and applied to the negative control affinity column that was connected in series to the CR2361 affinity column and an AKTA FPLC 900. The system was equilibrated with RIPA buffer. The lysate was applied to the columns at 1 ml/min and the columns were washed with 5 column volumes of RIPA buffer, followed by a salt gradient from 150 mM NaCl to 500 mM NaCl, a wash with 5 column volumes TX-100 buffer (1% Triton X-100, 150 mM NaCl, 50 mM Tris pH 7.4, protease inhibitors (Roche)) and an elution of 5 column volumes glycine, pH 2.7, whereby after 1 column volume of elution buffer the flow through was put for 10 minutes on hold to enhance the release of immune complexes. Next, the column was washed with 5 column volumes of TX-100 buffer. The eluted fractions of 0.5 ml were neutralized with 20 μl 2 M Tris/HCl, pH 7.4, and 20 μl of the samples were run on a non-reducing SDS-PAGE Criterion gel and stained with silver stain according to standard techniques known to the skilled artisan. […]

Measured: binding result

B1: CR2361 IgG1 (antibody, V domains shown)
VH: EVQLVESGGGLVQPGRSLRLSCAASGFTFDDYGMSWVRQAPGKGLEWVSLISWDGGSTYYADSVKGRFTISRDNSKNSLYLQMNSLRAEDTAVYYCAKWAPSHSFDYWGQGTLVTVSS
VL: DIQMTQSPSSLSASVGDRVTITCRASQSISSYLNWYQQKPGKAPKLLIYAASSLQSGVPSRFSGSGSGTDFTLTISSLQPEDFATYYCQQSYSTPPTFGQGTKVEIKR
notes: also called IgG1 CR2361; CR24361 (apparent misprint)
binds: [1] | [2] | [3]
